This experiment concerns the target T1, C5aR1 (human neutrophils) (Homo sapiens, UniProt P21730).
T1 construct: neutrophils isolated from whole blood; host or cells: human neutrophils (cryopreserved, or isolated from whole blood)
T1 sequence (P21730 1-350): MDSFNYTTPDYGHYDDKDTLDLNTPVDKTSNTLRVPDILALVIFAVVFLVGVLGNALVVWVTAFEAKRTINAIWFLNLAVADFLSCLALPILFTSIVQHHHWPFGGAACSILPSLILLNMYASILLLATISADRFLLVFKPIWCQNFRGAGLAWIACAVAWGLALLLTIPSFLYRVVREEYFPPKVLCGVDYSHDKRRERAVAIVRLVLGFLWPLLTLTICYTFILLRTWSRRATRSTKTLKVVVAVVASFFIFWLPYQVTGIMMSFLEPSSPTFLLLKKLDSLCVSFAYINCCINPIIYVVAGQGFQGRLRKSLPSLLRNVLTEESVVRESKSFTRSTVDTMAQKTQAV
In words: C5a induced chemotaxis (transwell), human neutrophils. As to conditions: 1, 10, or 100 nM antagonist, C5a 10^−6 to 10^−9.5 M. The experiment is classed as cell-based. The source says:
One of the primary mechanisms by which neutrophils migrate to the site of inflammation is by chemotaxis induced by a C5a/C5adesArg gradient is detected by C5aR1 signaling. Anti-C5aR1 antibodies were thus assessed in a chemotaxis assay for their ability to block C5a induced migration of neutrophils. The assay involved cell migration in a double chamber well separated by filters. The cells and inhibitors were applied into the upper chamber and the lower chamber was filled with the chemoattractant, causing the cells to migrate to the lower chamber. The inhibition activity was evaluated by counting the migrated cell numbers. Specifically, a titration of C5a was added to the bottom chamber a 96 transwell plate. Cells expressing human C5aR1 (C5aR1-U937 cells or human neutrophils) were incubated with or without antagonist and then seeded into the top chamber of the transwell plate. The cells were incubated for 2 hours. Cells that migrated to the bottom chamber were quantified using the CyQUANT cell proliferation kit following the manufacturer's protocol. […]
Anti-C5aR1 antibodies were assessed in a chemotaxis assay for their ability to block C5a induced migration of neutrophils. […] The inhibition activity was evaluated by counting the migrated cell numbers. […] Cells that migrated to the bottom chamber were quantified using the CyQUANT cell proliferation kit following the manufacturer's protocol. […]

This is an account of results in patent US12187807B2, “Antibody molecules to C5AR1 and uses thereof” (Visterra, Inc., priority 2020, dated 2025).

B1: clone 329: anti-C5aR1 Site II antibody; VH SEQ ID NO: 492, VL SEQ ID NO: 552 (antibody, V domains shown)
VH: QVQLQQSGAELTKPGASVKLSCKASGYTFTNYWMHWVKQRPGQGLEWIGYLNPSSGYTKYNQKFKDKATLTADKSSSTAYMQLNSLTYEDSAVYYCTRSGGDNYGNPYYFDRWGQGTTVTVSS
VL: DVVMTQTPLSLTVSLGDQASISCRSSQSLVHSNGNTYLHWYLQKPGQSPKFLIYKVSNRFSGVPDRFSGSGSGTDFRLKISRVEAEDLGVYFCSQSTLVPLTFGAGTKLEIK
Consider B1, for which the “inhibition of human neutrophil chemotaxis” value was “strongest effects”.
